± gives the uncertainty stated by the source.

The series can be described thus: amyloid nucleation score (Sup35N fusion, yeast selection) (log enrichment); library NNK3; higher = more nucleation; inactive = no reads after selection. The method, boiled down:
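Libraries of peptides of 20 random codons fused to Sup35N were expressed in psi-negative yeast and induced 24 hours with 100 μM copper sulfate. Selection was 7 days at 30°C on medium lacking adenine and uracil, and plasmid inserts were Illumina-sequenced before and after selection. Nucleation score is the DiMSum log enrichment of output over input reads, centred on the mode score of non-aggregating sequences, and sequences with under 100 input reads were left out.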
Turning to MTCTVRSEVYIHFNFVAIKF, the amyloid nucleation score came out at 0.299 ± 0.33.
Consider FEQNVGGLYWNKWSWGNLMR, for which the amyloid nucleation score result was “inactive”.
As for LCVPTSDRELGYRWFRAEWH, the amyloid nucleation score result was “inactive”.
As for IGRTCMCLYSAVVFIRHGTT, the amyloid nucleation score entry is “inactive”.
GSGGYWFMINVPENKIWVYL: the amyloid nucleation score was 1.72 ± 0.11.
On to LNSFQHGY, for which the amyloid nucleation score result is “inactive”.
In the case of SLIIDKGPDVYCSWTVERIT, the amyloid nucleation score result was “inactive”.
Consider VCWSHNPRPTDDY, for which the amyloid nucleation score entry is “inactive”.
As for LYCCTGEHGSLASVCSSTLT, the amyloid nucleation score was -0.852 ± 1.5.
For the substance LLDDVIRDAMPGSAGRSISG, the amyloid nucleation score entry is “inactive”.
Take STWGEFVH: the amyloid nucleation score entry was “inactive”.
As for SVDWYNFECSIASPF, the amyloid nucleation score result was “inactive”.
For HRSIRLYSETDWFRGLGSAG the value was “inactive”; for LLLSFYLNGILVIHML, “inactive”; for IYMSRKSLVMDVWQRHRDKE, “inactive”.
Consider NEFGEVLDSN, for which the amyloid nucleation score entry was “inactive”.
Take LGGLCL: the amyloid nucleation score result is “inactive”.
For WVLLKSWQNCLLGELVSEVQ the value was “inactive”; for VIYISCFTVLLVFLVNTPLR, 1.2 ± 0.11; for RSVFCKKFPDKNMVVFGVHL, “inactive”.
For the substance LERTNWCQYHL, the amyloid nucleation score entry was “inactive”.
For RIIAGWTYRSSQIWYFRDPH the value was “inactive”; for ISYVKFY, “inactive”.
As for PGSASYSLVRGQDYYLTIYC, the amyloid nucleation score result is “inactive”.
The same measure for KLSLMAVNLSWIYFCL: 0.182 ± 0.27.
The same measure for REKDSAAHVVE: “inactive”; for ALYERWSTDNVWRRSSQEFL: “inactive”.
Turning to CAWVDRYYKKVIGANRGSLS, the amyloid nucleation score result is “inactive”.
As for LKHVWLSDRALGSSLTCMAG, the amyloid nucleation score result was “inactive”.
Consider WMFLDTSGDIMPRGLTDYLE, for which the amyloid nucleation score entry is “inactive”.
In the case of APDVQYFYSLQD, the amyloid nucleation score entry was “inactive”.
As to SREDCGGI, the amyloid nucleation score result was “inactive”.
For the substance LFCIWSSVLVRVHVFQKW, the amyloid nucleation score result was “inactive”.
With NLDQHCRCVIGFAITYYVGY, the amyloid nucleation score entry was “inactive”.
Regarding SVKVPWWDCINVRAHMWRMV, the amyloid nucleation score entry was “inactive”.
The same measure for VMDGFHKHIFFVVCTSRHNF: 0.271 ± 0.77.
For the substance IRSAVVV, the amyloid nucleation score was -0.53 ± 1.8.
For SLYRDLHFYSVLGF, the amyloid nucleation score result was “inactive”.
Consider HNSYRED, for which the amyloid nucleation score result was “inactive”.
The same measure for IFLNLLSRGFGLGRELKCRC: “inactive”.
On to VYSGESNQIYIMNWPVTSKQ, for which the amyloid nucleation score worked out at 0.062 ± 0.59.
Regarding NRVAYTAQCQIIFCVGGYCL, the amyloid nucleation score was determined as 2.72 ± 0.069.
Turning to PPGLGYSMVFYSSVDMHMLS, the amyloid nucleation score entry is “inactive”.
In the case of LFCCPDLFRRG, the amyloid nucleation score was determined as 2.4 ± 0.09.
As to HSSIVWKRYSIYFVKNGGTF, the amyloid nucleation score entry was “inactive”.
In turn, KYLGMMVKNANMLALCYAGW came in with an amyloid nucleation score of -0.279 ± 0.68.
With FVTKRCFDMLF, the amyloid nucleation score entry is “inactive”.
Take RIWRPLTFMSLDLMIMWCRH: the amyloid nucleation score result was “inactive”.
Turning to RDYAFNPMFCCATNAKFMKG, the amyloid nucleation score was determined as 1.96 ± 0.06.
With WSPKTLLM, the amyloid nucleation score result was “inactive”.
The same measure for CEVRGCNYTYSVGERCSQN: “inactive”; for VDKQPDLIAHRMWTKVG: “inactive”.
With LIVLVMHKLYKLWSGRLRVV, the amyloid nucleation score result was “inactive”.
For the substance QVSLSRRISFYGHLNSDNES, the amyloid nucleation score result is “inactive”.
Consider DWYIVRMARCG, for which the amyloid nucleation score is 0.984 ± 0.12.
For TELFALGYRSFCARTCATHD the value was “inactive”; for RWIFLITILGVLNT, “inactive”; for RFNAFSPSPRWPRHFKTMYY, “inactive”.
For FWGLSAMSLEVRGWRMGGEL the value was 0.196 ± 0.54.
On to IAPVFWITLYHNFTSRIDRF, for which the amyloid nucleation score came to 1.44 ± 0.14.
The same measure for YLVYNYFMRDHWGLSVYLSR: 0.641 ± 0.18; for CLTYRSG: “inactive”.
For the substance EIVYCPWLQSWRA, the amyloid nucleation score entry was “inactive”.
For the substance PIAHFM, the amyloid nucleation score result was “inactive”.
In the case of LKCDLMWLMLDNYTAVDSFR, the amyloid nucleation score result was “inactive”.
In turn, LYGLVWYTQVGLLNVYSKIY showed an amyloid nucleation score of 1.24 ± 0.18.
In the case of ETYKITLRTCLLATAGLREF, the amyloid nucleation score entry is “inactive”.
The same measure for LFFYYMNSDLVR: “inactive”; for DDTRYHAHTSNLGRITHRIQ: “inactive”; for CVVCCG: “inactive”.
The same measure for LCCFCCDPHLR: 2.64 ± 0.061.
Consider ILVYLASLVTNFNYVHIPLG, for which the amyloid nucleation score is 0.969 ± 0.18.
For TCYSIERFACY the value was “inactive”.
LSNFITTLSTWITLSI: the amyloid nucleation score entry was “inactive”.
Take TYFVVDGYVGMFCLIGDISS: the amyloid nucleation score turned out to be 2.69 ± 0.052.
Consider SLNNYFYSTNYETSFTLD, for which the amyloid nucleation score entry was “inactive”.
Consider TSTNNSRKYSSQRRWMHPLG, for which the amyloid nucleation score result was “inactive”.
As for VVCELCGSYYYIHCWDCNAS, the amyloid nucleation score was 2.75 ± 0.069.
On to DHHQIFYVWSLPMA, for which the amyloid nucleation score result was “inactive”.
On to GWRAIWGNWNLQYRTS, for which the amyloid nucleation score entry is “inactive”.
With QDVAFAAEYELTKCSVLFSN, the amyloid nucleation score result is “inactive”.
QNSGFWIRMH yielded an amyloid nucleation score of -1.38 ± 2.4.
For MRYLDLYGRARNVRIRVRRT the value was “inactive”.
LRLGIEMNTIGTLNMGPLSL: the amyloid nucleation score result is “inactive”.
For SLKCIRSVLNPWAGAALYPS the value was “inactive”; for LVYRMMGSWVGPIRVYFNML, “inactive”.
EIIFLS: the amyloid nucleation score entry was “inactive”.
For GDSNTSRLCAPSMRNVKAQL the value was “inactive”; for SYGLFR, “inactive”.
For IPVNYLASDMFN the value was “inactive”; for GIKFAGRRLTSEDL, “inactive”; for EFLESMNFVVTFLRWIQWTN, “inactive”.
For the substance YRNLWNIHTVISIASL, the amyloid nucleation score result was “inactive”.
With LSRLGWYRFCTIMGCYFWIL, the amyloid nucleation score entry is “inactive”.
Turning to QILYFVDTEVSYMEASWRDS, the amyloid nucleation score result was “inactive”.
As to RSALILAWHCRSMSLQDAEG, the amyloid nucleation score result was “inactive”.
Turning to RYFVT, the amyloid nucleation score entry is “inactive”.
For MSHDTFDV, the amyloid nucleation score entry is “inactive”.
For IMTVILSPLLTCNYFCCR the value was 2.35 ± 0.085.
On to DCWYHMPHQIWH, for which the amyloid nucleation score entry is “inactive”.
CNRVPVFFMFYVEQGVLRWN: the amyloid nucleation score came out at 2.13 ± 0.081.
Regarding SVRYVETYSHRTNTVDAAFV, the amyloid nucleation score entry was “inactive”.
For FWDTKFEFFQLHRVWIPLLV the value was “inactive”; for PCLYLGIFARTKMHPTNDCM, -0.88 ± 1.1; for FFLAASPISRNWWSSSLGHS, “inactive”.
NERFERMKRKSVQLPLYVVM gave an amyloid nucleation score of -0.009 ± 0.53.
On to RVNRSLGIVSIECRWVVIRG, for which the amyloid nucleation score result was “inactive”.
Take YLTCVVKRTVH: the amyloid nucleation score result is “inactive”.
Substance SSNDVVTSYRILCKVSTKAT registered an amyloid nucleation score of -0.622 ± 0.66.
CMDYYKMYISYYFDAGWVLS: the amyloid nucleation score result was “inactive”.
On to LELVRG, for which the amyloid nucleation score result was “inactive”.
For the substance AVVPAFDLLWRNRLITSMTS, the amyloid nucleation score entry is “inactive”.
Consider WAFHFGCCNDGMVR, for which the amyloid nucleation score result is “inactive”.
Consider LYTAATLGSTRLAYCKKEWG, for which the amyloid nucleation score result is “inactive”.
SEYMNLYTVTTHRTPS: the amyloid nucleation score result was “inactive”.
With MYPHAQIEYYAVAHSLAIV, the amyloid nucleation score entry was “inactive”.
On to VHGIRSELDRYLMNTNSTEL, for which the amyloid nucleation score result was “inactive”.
On to LLVVNNCIYGMVKRSIGYD, for which the amyloid nucleation score is 2.13 ± 0.07.
PSVWFFSTETFMVRCPADC: the amyloid nucleation score is 0.549 ± 0.33.
Consider RDFNMDTVRAVWISQILNSI, for which the amyloid nucleation score entry is “inactive”.
As for GSYSNAHTPQF, the amyloid nucleation score is 0.695 ± 0.2.
Turning to LKDYYFVLGHALYVLRNPMS, the amyloid nucleation score is 1.08 ± 0.13.
Regarding NRNYVGPWTLKMGLVC, the amyloid nucleation score result was “inactive”.
On to GNSLWKSPCYL, for which the amyloid nucleation score result is “inactive”.
The same measure for YCTGLIFPAFSNLEDSTLLF: “inactive”; for RMSLSGRYRHFWSGRCVCRE: “inactive”; for NAENFYV: “inactive”.
For CYRLQAFNARGTERTDAVYL the value was “inactive”; for PLKTLFCSVLSCVIFLYLLM, “inactive”.
With TRTMAVDTVGCSENRDAAGD, the amyloid nucleation score entry was “inactive”.
RRLHSIAFVHRCLIIICCMG: the amyloid nucleation score result is “inactive”.
